Source: paper PMC9929644 (The EMBO Journal, 2023)

Assays:
GST‐LMO4 = GST‐LMO4 (UniProt P61968); experiment: ITC
MBP‐Jacob‐262‐532 = target: T1, MBP‐Jacob‐262‐532 (UniProt Q9EPI6 262-532); experiment: pull-down
T1 sequence (looked up): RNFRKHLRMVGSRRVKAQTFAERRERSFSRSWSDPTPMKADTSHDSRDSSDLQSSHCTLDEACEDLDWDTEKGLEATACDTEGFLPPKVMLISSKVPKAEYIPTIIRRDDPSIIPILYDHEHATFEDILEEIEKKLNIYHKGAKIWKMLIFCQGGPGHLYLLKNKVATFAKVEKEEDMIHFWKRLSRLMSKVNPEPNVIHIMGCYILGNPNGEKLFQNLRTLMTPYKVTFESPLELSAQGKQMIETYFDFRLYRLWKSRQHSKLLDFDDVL

Jacob (protein of the ITC experiment), sequence (Q9EPI6 whole entry): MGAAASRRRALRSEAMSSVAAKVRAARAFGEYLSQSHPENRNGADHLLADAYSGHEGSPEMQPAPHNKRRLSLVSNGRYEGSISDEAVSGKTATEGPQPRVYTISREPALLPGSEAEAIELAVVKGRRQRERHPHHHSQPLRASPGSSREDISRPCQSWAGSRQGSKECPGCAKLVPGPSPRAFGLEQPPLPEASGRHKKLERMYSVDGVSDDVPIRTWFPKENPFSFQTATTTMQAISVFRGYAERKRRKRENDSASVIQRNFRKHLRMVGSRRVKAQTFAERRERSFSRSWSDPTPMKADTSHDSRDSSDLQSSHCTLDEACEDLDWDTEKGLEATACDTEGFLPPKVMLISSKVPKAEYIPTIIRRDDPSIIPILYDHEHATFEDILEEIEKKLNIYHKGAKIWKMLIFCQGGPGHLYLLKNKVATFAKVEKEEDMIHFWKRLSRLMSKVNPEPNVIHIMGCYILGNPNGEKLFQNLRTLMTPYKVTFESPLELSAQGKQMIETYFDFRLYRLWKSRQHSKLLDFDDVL

Row | Molecule | Kd (GST‐LMO4) [nM] | binding result (MBP‐Jacob‐262‐532)
1 | Jacob (protein of the ITC experiment) (from UniProt Q9EPI6 1-532) (natural protein) | 370 | –
2 | REAARECRRKKKEYVKCLENRVAVLENQNKTLIEELKALKDLYCHKSD (domain or fragment, UniProt P15337-1 294-341, looked up) [bZIP domain of CREB (His‐SUMO‐CREB‐294‐341)] | – | binds
